Assay results as given in US20230094463A1, “ANTIBODIES THAT DISRUPT THE INTERACTION OF GAL3 AND INSULIN RECEPTOR OR INTEGRINS AND METHODS OF USE THEREOF” (TrueBinding, Inc., priority 2019, published 2023).
Where a chain is given by its changes, count along the chain named. Names and notes keep the numbering of the source.

Columns and labels:
[1] = target: T1, Gal3 peptides (SEQ ID NOs: 3-26) (Homo sapiens, UniProt P17931); test: Gal3 peptide library binding ELISA (epitope mapping); conditions: for binding to Gal3 Peptide 1: Peptide 1 (SEQ ID NO: 3), amino acids 1-20 of Gal3; for binding to Gal3 Peptide 7: Peptide 7 (SEQ ID NO: 9), amino acids 61-80 of Gal3; for binding to Gal3 Peptide 6: Peptide 6 (SEQ ID NO: 8); for binding to Gal3 Peptide 4: Peptide 4 (SEQ ID NO: 6), amino acids 31-50 of Gal3
T1 construct: a library of 24 amino acid peptides representing portions of Gal3; purchased LifeTein custom order
Protocol: To identify the epitopes to which Gal3 antibodies with and without Gal3-INSR blocking activity bound, a library of 24 amino acid peptides representing portions of Gal3, depicted in FIG. 27, was produced and the ability of each peptide to bind Gal3 antibodies was evaluated by ELISA. At least 2 μg/ml of hGal3 peptide in 50 μl of PBS or 0.1 μg/ml of full-length human Gal3 protein (GenScript) and human Galectin-3 protein (Acro Biosystems, GA3-H5129) were diluted in PBS (Corning, 21-030-CM) to concentrations of at least 2 μg/ml or 0.1 μg/ml, respectively, and added to the wells of a 96-well ELISA plate (Thermo Fisher, 44-2404-21). After incubating the plate at 4° C. overnight, the plate was washed three times with PBST (PBS with 0.05% Tween 20 [VWR, 0777]). The plate was then blocked for an hour with 2% BSA (EMD Millipore, 126609) in PBST at room temperature with gentle rocking. Thereafter, the 2% BSA in PBST was discarded and human Galectin-3 hybridoma supernatants or antibodies were diluted in 2% BSA in PBST to concentrations of at least 0.1 μg/ml and added to the wells. The plate was incubated for an hour at room temperature with gentle rocking and then washed three times with PBST. Afterwards, Goat Anti-Mouse IgG-HRP (Jackson ImmunoResearch, 115-036-1461) or Goat Anti-Rat IgG HRP (Abcam, ab205720) diluted in 2% BSA in PBST (1:4000) were added to the wells. The plate was incubated for 30 minutes to 1 hour at room temperature with gentle rocking and then washed three times with PBST. TMB substrate (Thermo Scientific, 34029) was then added to each well. The reaction was stopped with 1M HCl (JT Baker, 5620-02) and read using a plate reader (Molecular Devices) at absorbance of 450 nm.
Human Gal3 peptides (LifeTein, custom order) and human Gal3 proteins (R&D Systems, 8259-GA; TrueBinding, QCB200349) were diluted in PBS (Corning, 21-030-CM) to concentrations of at least 100 μg/mL (peptides) or 1 μg/mL (proteins), and added to the wells of several 96-well ELISA plates (Thermo Fisher, 44-2404-21). After incubating the plates at 4° C. overnight, the plates were washed three times with PBST (PBS with 0.05% Tween 20 [VWR, 0777]). The plates were then blocked for an hour with 2% BSA (EMD Millipore, 126609) in PBST at room temperature with gentle rocking. Thereafter, the 2% BSA in PBST was discarded and Gal3-binding antibodies (reformatted hIgG4 [S228P]) were diluted in 2% BSA in PBST to concentrations of 5 μg/mL and added to the wells. The plates were incubated for an hour at room temperature with gentle rocking and then washed three times with PBST. Afterwards, Peroxidase AffiniPure F(ab′)2 Fragment Goat Anti-Human IgG (H+L) polyclonal antibody (Jackson ImmunoResearch, 109-036-003), was diluted in 2% BSA in PBST (1:4000) and added to the wells. The plates were incubated for 1 hour at room temperature with gentle rocking and then washed three times with PBST. TMB substrate (Thermo Scientific, 34029) was then added to each well. The reaction was stopped with 1M HCl (JT Baker, 5620-02) and read using a plate reader (Molecular Devices) at absorbance of 450 nm.

human Gal3 = target: T2, human Gal3 (Homo sapiens, UniProt P17931); test: Antibody binning assays (competition for binding to Gal3); conditions: binning per Examples 3 and 18
T2 construct: His; purchased AcroBio GA3-H5129
Protocol: To determine whether Gal3-binding antibodies with Gal3-INSR blocking activity bind to the same or overlapping regions of the Gal3 molecule, antibody binning assays were performed to assess the ability of antibodies to simultaneously bind Gal3. Amine-reactive probes were loaded onto a Gator biosensor (Probe Life, Palo Alto, Calif.), equilibrated in dH20 for 60 seconds, dipped into 100 μl EDC 0.2M/NHS 0.05M activation buffer for 30 seconds, then dipped into a solution of […] human Gal3-His in 10 mM NaOAc buffer, pH 5 until binding was saturated, and quenched in 1 M ethanolamine pH 8.5 for 300 seconds. Following Gal3-His loading, tips were dipped in 20 μg/mL saturating antibody, then successively dipped into 5 μg/mL competing antibody.
The epitope binning assay was done in a sandwich format on the high-throughput SPR-based Carterra LSA unit (CarterraBio, Salt Lake City, Utah). First, the purified antibodies were diluted to 10 μg/ml concentration in 10 mM NaOAc (pH 5.0) and then were covalently coupled via amine group to HC200M chip activated by EDC and S-NHS to immobilize antibodies to different positions of a 384-spot array. One hundred thirty-eight binning cycles were run on the array of immobilized antibodies. In each cycle, first, human Gal3 (AcroBio GA3-H5129) was injected over the entire array to bind to different antibodies (primary antibody), followed by one antibody (secondary antibody) selected among the panel of 150 anti-GAL3 antibodies tested. At the end of each cycle, the array was regenerated by 10 mM Glycine (pH 2.0) to remove bound antigen and secondary antibody from the array. The data analysis was done using the Epitope software by CarterraBio.

T2 sequence (P17931 whole entry): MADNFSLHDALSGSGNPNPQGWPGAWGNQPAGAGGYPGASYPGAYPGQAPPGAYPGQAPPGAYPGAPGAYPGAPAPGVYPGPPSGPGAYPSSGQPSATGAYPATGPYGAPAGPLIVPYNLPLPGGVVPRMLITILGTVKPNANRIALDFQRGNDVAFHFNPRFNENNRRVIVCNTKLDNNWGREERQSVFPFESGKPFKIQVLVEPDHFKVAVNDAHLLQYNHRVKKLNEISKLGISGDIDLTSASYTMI

B1: F847C.10B9: anti-Gal3 antibody (antibody, V domains shown)
VH: QIQLVQSGPEVKKPGETVKISCKASGYIFTNYGMNWVKQAPGKGLKWMGWINTYTGEPTYTDDFKGRFAFSLETSASTAYLQINNLKNEDTATYFCAKFGNYVGAMDYWGQGTSVTVSS
VL: DIRMTQSPSSLSASLGDTITITCHASQNINVWLSWYQQKPGNIPKLLIYKASNLHTGVPSRFSGSGSGTGFTLTISSLQPEDIATYYCQQGQSYPYTFGGGTKLELK
binding to Gal3 Peptide 1 [1]: bind and bound | binding to Gal3 Peptide 7 [1]: bind and bound

B2: F847C.12F12: anti-Gal3 antibody (antibody, V domains shown)
VH: B1 VH with V11L, I28T, T61V, Q82R
VL: B1 VL with R3Q, M4V, T5I
binding to Gal3 Peptide 1 [1]: bind and bound | binding to Gal3 Peptide 7 [1]: bind and bound

B3: F847C.26F5: anti-Gal3 antibody (antibody, V domains shown)
VH: B1 VH
VL: B1 VL with D1E, R3K, T5N
binding to Gal3 Peptide 1 [1]: bind and bound | binding to Gal3 Peptide 7 [1]: bind and bound

B4: 20D11.2C6: anti-Gal3 monoclonal antibody (antibody, V domains shown)
VH: EVQLQQSGPELVKPGASVKISCKASGYTFTDFYINWVKQSHGKSLEWIGDINPKNGGINYNPKFKIKATLTVDKSSSTSYMDLRGLTSEDSAVYYCTSGYGFPYWGQGTLVTVSA
VL: DIQMNQSPSSLSASLGDTITITCRASQNIYIWLSWYQQKPGNIPKLLIYKASNLHTGVPSRFSGSGSGTDFTLTISTLQPEDIATYFCLQGQSYPLTFGAGTKLEMK
binding to Gal3 Peptide 1 [1]: bind and bound | binding to Gal3 Peptide 6 ([1]; amino acids 51-70 of Gal3): bound | binding to Gal3 Peptide 7 [1]: bind and bound | epitope bin (competitive binding to Gal3) (human Gal3): bins 5

B5: 19B5.2E6: anti-Gal3 monoclonal antibody (antibody, V domains shown)
VH: QIQLVQSGPELKKPGETVKISCKASGYTFTTYAMSWVKQAPGKGLKWMGWINTYSGVPTYADDLKGRFAFSLETSASTAYLQINNLKNEDTATYFCARGPYAMDYWGQGTSVTVSS
VL: DIQMTQTTSSLSASLGDRVTISCSASQGINNYLNWYQQKPDGTVKLLIYYASSLHSGVPSRFSGSGSGTDYSLTISNLEPEDIATYYCQQYSQVPYTFGSGTKLEIK
binding to Gal3 Peptide 1 [1]: bind and bound | binding to Gal3 Peptide 7 [1]: bind and bound | epitope bin (competitive binding to Gal3) (human Gal3): bin 3

B6: F846C.1H5: anti-Gal3 antibody (antibody, V domains shown)
VH: EVQLLESGGGLVKPGGSLKLSCAASGFTFSSYAMSWVRQTPEKRLEWVASISSGGDTYYPDSVKGRFTISRDNARNILYLQMSSLRSEDTAMYYCASYGNSLFDYWGQGTTLTVSS
VL: DVVMTQTPLSLPVSLGDQASISCRSSQSLVHNSGNTYLHWYLQRPGQSPNLLIYKVSNRFSGVPDRFSGSGSGTDFTLKISRVAAEDLGVYFCSQSTHVPPTFGGGTKLEIK
binding to Gal3 Peptide 1 [1]: bind and bound

B7: 15F10.2D6: anti-Gal3 monoclonal antibody (antibody, V domains shown)
VH: EVQLVESGGGLVKPGGSLKLSCAASGFAFSSYAMSWVRQTPEKRLEWVATISDGGVYTYYTDHVKGRFTISRDNAEDNLYLQMSHLKSEDTAMYYCVRDGGYWGQGTTLTVSS
VL: DVLMTQTPLSLPVSLGDQASISCRSSQSIVHNNGNTYLEWYLQKPGQSPKLLIYKVSNRFSGVPDRFSGSGSGTDFTLKISRVEAEDLGVYYCFQGSHVPLTFGGGTKLELK
binding to Gal3 Peptide 2 ([1]; Peptide 2 (SEQ ID NO: 4)): bind | binding to Gal3 Peptide 3 ([1]; Peptide 3 (SEQ ID NO: 5)): bind | binding to Gal3 Peptide 4 [1]: bind | binding to Gal3 Peptide 7 [1]: bind and bound | epitope bin (competitive binding to Gal3) (human Gal3): bin 8

B8: 13A12.2E5: anti-Gal3 monoclonal antibody (antibody, V domains shown)
VH: QIQLVQSGPELKKPGETVKISCKTSGYKFKTYVMSWVKQAPGKALKWMGWINTYSGVPTYADDFKGRFAFSLETSASTAYLEIINLKNEDTATYFCARDGNYGDPMDYWGQGTSVTVSS
VL: DVVMTQTPLTLSVAIGQPASISCKSSQSLLYTNGKTYLNWLLQRPGQSPKRLIYLLSKLDSGVPDRFSASGSGTDFTLKISRVEAEDLGVYYCLQSTHFPLTFGAGTKLEMK
binding to Gal3 Peptide 4 [1]: bind | binding to Gal3 Peptide 6 ([1]; amino acids 51-70 of Gal3): bind and bound

B9: F846C.1B2: anti-Gal3 antibody (antibody, V domains shown)
VH: QIQLVQSGPELKKPGETVKISCKASGYTFTNYGMNWVKQAPGKGLKWMGWINTYTGEPSYADDFKGRFAFSLETSASTAYLQINNLKNEDMATYFCARWGGYAGDYYAMDFWGQGTSVTVSS
VL: NIWLTQSPSSLAVSAGEMVTMTCKSSQSVLYSSNQKNYLAWYQQKPGQSPKLLIYWASTRESGVPDRFTGSGSGTDFSLTISSVQAEDLAVYYCHQYLSSLTFGAGTKLELK
binding to Gal3 Peptide 5 ([1]; Peptide 5 (SEQ ID NO: 7)): bind | binding to Gal3 Peptide 6 ([1]; amino acids 51-70 of Gal3): bind and bound | binding to Gal3 Peptide 7 [1]: bind and bound

B10: F846C.2H3: anti-Gal3 antibody (antibody, V domains shown)
VH: B9 VH with A103D, F111Y
VL: B9 VL with W3M, L4M, M18K, T22S, S78T, A86P
binding to Gal3 Peptide 6 ([1]; amino acids 51-70 of Gal3): bind and bound

B11: TB006: anti-Gal3 antibody (antibody, V domains shown)
VH: QVQLVQSGAEVKKPGASVKVSCKASGYSFTNYYMHWVRQAPGQRLEWMGWIYPGSGNTNYNEKFQGRVTITADTSASTAYMELSSLRSEDTAVYYCSTAPGGFDVWGQGTTVTVSS
VL: DIVMTQTPLSLSVTPGQPASISCKSSKSLLHSDGITYLYWYLQKPGQSPQLLIYRMSNLASGVPDRFSGSGSGTDFTLKISRVEAEDVGVYYCAQMLEFPLTFGQGTKLEIK
binding to Gal3 Peptide 6 ([1]; amino acids 51-70 of Gal3, listed as IMT006 (TB006)): bind and bound
